In patent US20210268105A1 (HEXAMER THERAPEUTICS, published 2021):
Where no end group is shown, it is not given here.

Target: the molecule itself
Test: Blue native PAGE of the peptide dissolved in 1xPBS; self-association into a hexamer
Protocol: The peptide (SEQ ID NO: 15) was synthesized by SPPS and lyophilized for storage. The peptide was dissolved in 1×PBS and then loaded onto a blue native PAGE gel and size fractionated by electrophoresis through a 4-16% acrylamide gradient gel for 90 min at 150 V (constant). The gel was fixed in methanol:acetic acid:water and then rinsed in the same solution to destain. Lane 1 is BSA as a reference protein, and Lane 2 is the self-assembled hexamer. MW standards (which are not shown) are on the right. BSA is 66 kDa and the hexamer has an expected size of 20.7 kDa.
Experiments were performed to confirm that a hexamer forms following hydration of the monomer, elucidate the solubility of epitope coupled hexamers, determine the maximum density of epitope coupling, and confirm that a hexameric structure is maintained following coupling of the epitope. A representative peptide, SEQ ID NO: 15, was synthesized using the protocols previously described. A methionine and aspartic acid residue were placed on the N-terminus, and the methionine residue was protected by acetylation to form Acetyl-MD-(SEQ ID NO: 15). Following SPPS, the peptide was lyophilized for storage. To show self-assembly, the peptide was dissolved in 1×PBS buffer, incubated at room temperature for 5 min, and loaded onto a Blue NativePAGE Novex Bis-Tris Gel using the system purchased from Life Technologies. […]

B1: Acetyl-MD-(SEQ ID NO: 15) (peptide)
peptide: Ac-MDLRSIGKDLRSIGRDLRSIGKDLRSIGRD
notes: After it is dissolved in 1xPBS, six copies self-assemble into a hexamer (expected 20.7 kDa); also called self-assembled peptide
B1: binds.
